Test results reported in patent US20070275898.

Molecular target: β subunit of DNA polymerase III of Escherichia coli, P0A988
Sequence (P0A988 whole entry): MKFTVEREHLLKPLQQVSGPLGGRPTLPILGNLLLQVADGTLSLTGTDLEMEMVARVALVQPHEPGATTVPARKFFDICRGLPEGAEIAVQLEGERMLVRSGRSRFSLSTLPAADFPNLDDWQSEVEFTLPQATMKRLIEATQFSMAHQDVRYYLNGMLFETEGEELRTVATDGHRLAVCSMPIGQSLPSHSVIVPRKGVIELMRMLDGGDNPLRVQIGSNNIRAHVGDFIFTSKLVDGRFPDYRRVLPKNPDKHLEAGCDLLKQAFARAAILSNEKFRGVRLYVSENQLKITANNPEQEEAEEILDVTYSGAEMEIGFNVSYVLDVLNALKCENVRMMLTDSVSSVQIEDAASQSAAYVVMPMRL

B1: Pol IV DNA polymerase of Escherichia coli (protein)
chain: MRKIIHVDMDCFFAAVEMRDNPALRDIPIAIGGSRERRGVISTANYPARKFGVRSAMPTGMALKLCPHLTLLPGRFDAYKEASNHIREIFSRYTSRIEPLSLDEAYLDVTDSVHCHGSATLIAQEIRQTIFNELQLTASAGVAPVKFLAKIASDMNKPNGQFVITPAEVPAFLQTLPLAKIPGVGKVSAAKLEAMGLRTCGDVQKCDLVMLLKRFGKFGRILWERSQGIDERDVNSERLRKSVGVERTMAEDIHHWSECEAIIERLYPELERRLAKVKPDLLIARQGVKLKFDDFQQTTQEHVWPRLNKADLIATARKTWDERRGGRGVRLVGLHVTLLDPQMERQLVLGL
growth rate (OD 600 nm) of E. coli on IPTG-induced expression: a clear growth inhibition was observed for the culture expressing the wild type Pol IV protein compared to the one expressing the mutant protein | in vitro polymerase activity of Pol IV: the in vitro activity of Pol IV is greatly enhanced by the presence of the β subunit loaded onto a primer/template DNA substrate
